Our source for the residual G6PD activity after incubation of the enzyme and stoichiometry N values is article PMC6165198.

Assay [1] addresses fused glucose-6-phosphate dehydrogenase::6-phosphogluconolactonase (G6PD::6PGL) protein from Giardia lamblia (Giardia lamblia).
The target is the same in assay [2]. In words: SEC; Shodex Protein KW-802.5 column, 50 mM Tris buffer pH 8.75, protein incubated 2 h at 37 °C with either 0.45 M or no Gdn-HCl, flow 0.5 mL/min, calibrated with Bio-Rad standards. On the technique in general: Size exclusion chromatography separates by hydrodynamic size, large species first.
Assay [3] shares this target. Description: SEC; Sephacryl 100 (16/60) gel filtration column, 50 mM Tris buffer pH 7.85, flow 0.5 mL/min, calibrated with Bio-Rad gel filtration standards; oligomeric state from the elution volume.

One may read the stoichiometry N as the number of molecules, sites or subunits per partner or assembly. In the case of “fused glucose-6-phosphate dehydrogenase::6-phosphogluconolactonase (G6PD::6PGL) protein from Giardia lamblia (enzyme)”, in assay [1], the residual G6PD activity after incubation of the enzyme at 0 to 100 µg/mL for 2 h at 37 °C (stability to dilution) was found to be 100%. The stoichiometry N in assay [2] and in assay [3] was 2 in each case.
